Reference: patent US20240181006A1, “POLYPEPTIDES BINDING ADAMTS5, MMP13 AND AGGRECAN” (Merck Patent GmbH, priority 2017, published 2024)

Key:
bovine ADAMTS5 = assay: SPR-based off-rate analysis, bovine ADAMTS5; assay type: binding; conditions: Experiment 3
Protocol: (§1) Species cross-reactivity was initially evaluated via SPR-based off-rate analysis on a Biacore T100 instrument. Polypeptides were tested for binding to human, cynomolgus monkey (“cyno”), guinea pig, mouse, and bovine ADAMTS5. To this end, recombinant ADAMTS5 was immobilized onto a CM5 chip via amine coupling using EDC and NHS. Purified ISVD 02F03 was injected for 2 minutes at a concentration of 100 nM and allowed to dissociate for 15 min at a flow rate of 45 μl/min. Off-rate for each individual ADAMTS5 was determined by fitting a 1:1 interaction model (Langmuir model) onto the individual dissociation curves using the BIA Evaluation software. As a reference, off-rates on human ADAMTS5 were determined in each experiment.

mouse ADAMTS5 = target: T1, mouse ADAMTS5 (Mus musculus, UniProt Q9R001); assay: SPR-based off-rate analysis, mouse ADAMTS5; assay type: binding; conditions: Experiment 2
T1 sequence (Q9R001 262-930): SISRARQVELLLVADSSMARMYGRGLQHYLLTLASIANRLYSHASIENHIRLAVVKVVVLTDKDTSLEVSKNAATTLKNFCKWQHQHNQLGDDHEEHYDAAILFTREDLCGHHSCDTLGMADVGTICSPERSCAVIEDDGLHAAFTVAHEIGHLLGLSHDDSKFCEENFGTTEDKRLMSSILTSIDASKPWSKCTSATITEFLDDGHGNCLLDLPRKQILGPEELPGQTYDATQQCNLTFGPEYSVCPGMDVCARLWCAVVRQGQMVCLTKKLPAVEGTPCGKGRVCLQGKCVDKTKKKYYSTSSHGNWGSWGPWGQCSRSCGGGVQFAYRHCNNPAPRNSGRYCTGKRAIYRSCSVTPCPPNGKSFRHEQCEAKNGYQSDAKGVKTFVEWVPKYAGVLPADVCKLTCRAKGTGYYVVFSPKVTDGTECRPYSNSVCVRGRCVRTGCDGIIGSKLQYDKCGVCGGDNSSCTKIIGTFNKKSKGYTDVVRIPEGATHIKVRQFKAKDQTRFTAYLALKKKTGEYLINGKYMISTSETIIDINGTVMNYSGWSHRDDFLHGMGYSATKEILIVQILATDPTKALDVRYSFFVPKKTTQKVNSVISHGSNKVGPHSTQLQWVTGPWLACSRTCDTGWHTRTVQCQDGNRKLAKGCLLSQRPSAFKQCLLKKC
Protocol: as §1

B1: ISVD 02F03: immunoglobulin single variable domain which specifically binds ADAMTS5 (protein)
VHH: EVQLVESGGGVVQPGGSLRLSCAASGRTVSSYAMGWFRQAPGKEREFVAGISRSAERTYYVDSLKGRFTISRDNSKNTVYLQMNSLRPEDTALYYCAADLDPNRIFSREEYAYWGQGTLVTVSS
modifications: Description of Artificial Sequence: Synthetic anti-ADAMTS5 immunoglobulin single variable domain (ISVD)
In the case of B1, the “SPR based off-rate, kd, Bovine ADAMTS-5” value (bovine ADAMTS5) is reported as 4.3e-05 s⁻¹ and the “SPR based off-rate, kd, Mouse ADAMTS-5” value (mouse ADAMTS5) is reported as 0.00029 s⁻¹.
